Experimental data reported in patent US10253089B2, “Matrix metalloproteinase cleavable protein polymers for cancer gene therapy” (The University of Utah Research Foundation, priority 2012, dated 2019).

Tests used:
JHU-022 tumors = experiment: GDEPT (HSV-tk/GCV) efficacy study, tumor size and luciferase imaging; assay type: in vivo, nude mice; conditions: 4 wt % with virus + GCV
Experimental: In order to fully illustrate the potential of SELP as an injectable, in situ gel forming delivery system for the treatment of HNSCC solid tumors, a study was performed on the efficacy of this system using a GDEPT approach. The system chosen was herpes simplex virus thymidine kinase (HSV-tk) as the enzyme, and ganciclovir (GCV) as the prodrug. To accomplish this, a custom adenoviral construct was designed and used for this study. The construct contained genes which encode for HSV-tk and genes which encode for luciferase, a common reporter enzyme. This novel construct allowed both efficacy and biodistribution to be assessed simultaneously in vivo. Specifically, by combining these two genes in one virus, it becomes possible to track the location of transfection while simultaneously evaluating the efficacy of the treatment.
Appropriate controls were included. Luciferase expression was measured by injecting luciferin potassium salt intraperitoneally, and following appropriate time to allow distribution of luciferin the animals were imaged using a Xenogen IVIS100 imaging system (Caliper Life Sciences, Hopkinton, Mass.) which allows visualization of luciferase expression without sacrificing the animal. As a measure of efficacy the tumors were measured with calipers every 3 to 4 days. […]

MMP-9 = MMP-9 (Homo sapiens, UniProt P14780); experiment: Enzymatic digest of polymer by MMP-9, SDS-PAGE; assay type: biochemical; conditions: 1 mg/ml polymer, 10 nM and 40 nM MMP-9, 2-48 hours, room temperature
Chain of MMP-9 (P14780 94-707): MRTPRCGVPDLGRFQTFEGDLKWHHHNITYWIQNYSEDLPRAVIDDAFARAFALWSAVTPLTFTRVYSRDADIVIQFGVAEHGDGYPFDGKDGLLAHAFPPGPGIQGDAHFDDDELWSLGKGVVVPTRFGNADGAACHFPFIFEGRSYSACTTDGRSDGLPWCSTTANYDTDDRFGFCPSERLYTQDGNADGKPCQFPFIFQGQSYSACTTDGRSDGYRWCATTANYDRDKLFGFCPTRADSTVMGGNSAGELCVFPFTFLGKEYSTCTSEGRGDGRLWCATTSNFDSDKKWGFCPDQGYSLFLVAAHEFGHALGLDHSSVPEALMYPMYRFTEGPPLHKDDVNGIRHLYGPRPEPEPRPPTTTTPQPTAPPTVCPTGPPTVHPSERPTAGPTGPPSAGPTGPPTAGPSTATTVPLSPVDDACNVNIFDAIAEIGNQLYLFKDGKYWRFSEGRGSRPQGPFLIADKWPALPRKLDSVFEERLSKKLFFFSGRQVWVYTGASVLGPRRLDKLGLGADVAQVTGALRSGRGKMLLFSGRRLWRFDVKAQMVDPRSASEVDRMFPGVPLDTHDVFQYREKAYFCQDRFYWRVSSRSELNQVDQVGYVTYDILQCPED
Experimental: This buffer recipe is sourced from the Molecular Probes EnzChek Gelatinase/Collagenase Assay Kit (Invitrogen, Carlsbad, Calif.), which was used to confirm the activity of MMP-2 and MMP-9 prior to use. 2× Laemmli Buffer was supplemented with 5% β-mercaptoethanol and added 1:1 by volume to the polymer solutions, which were then placed in a PCR thermal cycler and heated to 95° C. for five minutes to denature the protein. 25 μl of each sample was added to 4-15% Bis-Tris precast PAGE gel and electrophoresis was performed at 200V until the dye front reached the bottom of the gel, approximately 30 minutes. Kaleidoscope protein standard was used as a molecular weight marker. Following electrophoresis, gels were stained with GelCode Blue (colloidal Coomassie formulation) following manufacturer's instructions for staining and destaining.
100 μl samples of each polymer were digested with a final concentration of 10 nM and 40 nM MMP-2 or MMP-9. MMP samples were incubated at room temperature for 2, 4, 12, 24, 36, and 48 hours and samples were run on PAGE gels and stained with GelCode Blue to visualize band patterns corresponding to protein degradation.
Additionally, this digestion is dependent on both time of exposure and concentration of MMP.

[1] = 12 week subchronic toxicity study; assay type: in vivo, CD-1 immunocompetent mice
Experimental: Mice were anesthetized and maintained under anesthesia with 3% isofluorane in oxygen. After shaving and cleaning the injection site with 60% isopropanol, mice were subcutaneously injected in the right flank with 50 μl of solution using a 250 μl Hamilton syringe with a 26G needle. […] The injection site was gently clamped for 10 seconds to prevent leakage, after which mice were returned to their cages. For consistency, the day of viral injection was defined as day 0.
For treatment groups, a suspension of 1 mg GCV (Sigma Aldrich, St. Louis, Mo.) per ml of 0.9% physiological saline was prepared and sterilized through a 0.22 μm filter. Each day, animal weights were recorded, injection sites cleaned with 60% isopropanol, and mice injected i.p. with 1 mg/ml GCV suspension through a 26G needle sufficient for a total dose of 25 mg/kg body weight. Average dosing volume for these studies was approximately 0.6 ml. Mice were injected daily for the first four weeks of the 12 week recovery study, and for the entirety of the 1, 2, and 4 week studies.
The results for the 12 week subchronic toxicity study (FIG. 18) reveal many interesting points about SELP and its ability to improve the Ad.HSVtk/GCV toxicity profile. […]

[2] = test system: JHU-022 head and neck cancer xenografts; experiment: Quantitative viral gene expression (β-gal) in vivo, tumor and liver; design: species or system athymic nude (nu/nu) mice; conditions: 4 wt %
Experimental: Head and neck cancer xenografts were established by subcutaneously injecting 2×10^6 JHU-022 cells suspended in 200 μl Phosphate Buffer Saline (PBS) bilaterally in the flank of athymic nude (nu/nu) mice. Tumors were allowed to grow for two weeks to reach an average diameter of 7 mm. […] Virus-polymer solutions were prepared by thawing SELP and virus stocks and mixing them gently with physiological saline. Mice were anesthetized using 4 wt % isofluorane mixed with oxygen, and intratumorally injected with 25 μl of the polymer-virus solutions using a Hamilton syringe. Mice were euthanized on days 7, 14, and 21 and tumor and liver tissue were isolated. CPRG β-gal colorimetric assays were performed as described previously in the scientific literature. […] Recovered tissue lysates were then centrifuged for 45 minutes at 14,000 rpm and, subsequently, upper aqueous layers were used for β-gal quantification. […]
Polymer structures and compositions that formed robust hydrogels were selected for matrix-mediated delivery of reporter genes in a murine model of HNSCC. […] Animals were sacrificed at days 7, 14, and 21 for analysis of gene expression, and analyzed using a colorimetric tissue lysate assay for β-galactosidase. […]

B1: SELP815K: silk-elastin-like protein polymer, longer silk units, fifteen elastin units, lysine elastin unit; monomer repeated 6 times (SEQ ID NO. 21) (protein)
chain: MDPVVLQRRDWENPGVTQLNRLAAHPPFASDPMGAGSGAGAGSGAGAGSGVGVPGVGVPGVGVPGVGVPGKGVPGVGVPGVGVPGVGVPGVGVPGVGVPGVGVPGVGVPGVGVPGVGVPGVGVPGVGVPGAGAGSGAGAGSGAGAGSGAGAGSGAGAGSGAGAGAGSGAGAGSGAGAGSGVGVPGVGVPGVGVPGVGVPGKGVPGVGVPGVGVPGVGVPGVGVPGVGVPGVGVPGVGVPGVGVPGVGVPGVGVPGVGVPGAGAGSGAGAGSGAGAGSGAGAGSGAGAGSGAGAGAGSGAGAGSGAGAGSGVGVPGVGVPGVGVPGVGVPGKGVPGVGVPGVGVPGVGVPGVGVPGVGVPGVGVPGVGVPGVGVPGVGVPGVGVPGVGVPGAGAGSGAGAGSGAGAGSGAGAGSGAGAGSGAGAGAGSGAGAGSGAGAGSGVGVPGVGVPGVGVPGVGVPGKGVPGVGVPGVGVPGVGVPGVGVPGVGVPGVGVPGVGVPGVGVPGVGVPGVGVPGVGVPGAGAGSGAGAGSGAGAGSGAGAGSGAGAGSGAGAGAGSGAGAGSGAGAGSGVGVPGVGVPGVGVPGVGVPGKGVPGVGVPGVGVPGVGVPGVGVPGVGVPGVGVPGVGVPGVGVPGVGVPGVGVPGVGVPGAGAGSGAGAGSGAGAGSGAGAGSGAGAGSGAGAGAGSGAGAGSGAGAGSGVGVPGVGVPGVGVPGVGVPGKGVPGVGVPGVGVPGVGVPGVGVPGVGVPGVGVPGVGVPGVGVPGVGVPGVGVPGVGVPGAGAGSGAGAGSGAGAGSGAGAGSGAGAGSGAGAMDPGRYQDLRSHHHHHH
modifications: monomer repeated 6 times; Hybrid of Homo sapein and Bombyx mori
For B1, which “tumor regrowth / recovery observation” value (JHU-022 tumors; out to day 33) is on record?
The value was “full recovery, with no evidence of a tumor out to day 33”.

And the “reduction in tumor size compared to virus in saline” value (JHU-022 tumors; over 33 days)?
Its value is 3 fold.

What about the “digestion by MMP-9” value (MMP-9) of the same molecule?
Its value is “is not”.

And the “toxicity conclusion of the statistical comparison” value ([1]; 12 week study, comparison named in the table line)?
The value was “SELP itself is not toxic in”.

What about the “p (ANOVA and Bonferroni post-test) Vs Control” value ([1]; 12 week subchronic toxicity study) of the same molecule?
Its value is “p > .05”.

What about the “tumor transfection (β-gal) compared to free virus” value ([2]; Ad.CMV.LacZ 5×10^8 PFU intratumoral, week one) of the same molecule?
Its value is “more than 50 fold”.

What about the “difference in tumor vs. liver transfection” value ([2]; Ad.CMV.LacZ, week two) of the same molecule?
Its value is 55 fold.
